# Reference: patent publication US20220154138A1, “METHOD OF PRODUCING PLACENTA-LIKE ORGANOID, PLACENTA-LIKE ORGANOID, AND PRODUCTION OR TEST KIT” (FUJIFILM Corporation, priority 2020, published 2022)
# B1: BMP4: bone morphogenetic protein BMP4 (R&D Systems Inc.), added to iPS cell medium at 50 ng/mL to induce differentiation (protein, UniProt P12644 293-408, looked up)
# Bone morphogenetic protein 4: SPKHHSQRARKKNKNCRRHSLYVDFSDVGWNDWIVAPPGYQAFYCHGDCPFPLADHLNSTNHAIVQTLVNSVNSSIPKACCVPTELSAISMLYLDEYDKVVLKNYQEMVVEGCGCR
# Key:
# [1] = test system: iPS cells; test: Three-dimensional suspension culture with BMP4, hCG quantified by i-STAT cartridge Total β-hCG; type: cell-based, human
# Procedure: (§1) In the i-STAT cartridge Total β-hCG, about 17 μL of the culture supernatant was sampled, injected into the reagent cartridge, and inserted into the single-purpose analyzer.
# (§2) On the other hand, three-dimensional suspension culture was started at the same time using the same iPS cells used in the two-dimensional culture adhesion culture. 30 mL of an iPS cell medium (StemFit (registered trade name) AK02N: Ajinomoto Co., Inc.) was dispensed into a 30 mL volume spinner flask (ABLE Corporation), and then iPS cells (1.3×10^6 cells/mL) were seeded. In the same manner as in the two-dimensional adhesion culture, BMP4 was not added at the start of culture, but a medium to which a solution containing 50 μg/mL BMP4 (R&D Systems Inc.) was added at the same proportion as that used in the two-dimensional adhesion culture was used after the 4th day of culture. After the start of culture, the addition of BMP4 to the medium was continued until the 14th day of culture while the medium was exchanged every 3 to 4 days, and thereafter, a medium to which BMP4 had not been added was used. In three-dimensional suspension culture, stirring culture was continued in a spinner flask throughout the culture period. While continuing the two-dimensional adhesion culture and the three-dimensional suspension culture, the culture supernatant was appropriately sampled after the 7th day of culture, and the amount of hCG produced was quantified using the i-STAT cartridge Total β-hCG. Since there are differences in the number of cells that can be seeded at the start of culture and the adding amount of medium between the two-dimensional culture and the three-dimensional culture, there are differences in the hCG concentration and the total hCG production in the culture supernatant, and thus it is not possible to simply compare them. For this reason, the hCG quantification value on the 7th day of culture after the start of differentiation induction into the placenta was set to 100, and the ratio of the hCG quantification value on the subsequent culture measurement day to the hCG quantification value on the 7th day of culture was calculated. That is, in a case where the hCG quantification value on the 7th day is set to 100 in each of the two-dimensional and three-dimensional culture forms, the subsequent changes after the 7th day in the hCG production amount are shown in FIG. 2. It was confirmed that in the two-dimensional culture, the decrease in hCG production amount is particularly remarkable after the 15th day of culture, whereas in the three-dimensional culture, the hCG continues to be produced after the 15th day, and even on the 25th day of culture, 10 times or more of the hCG production is maintained as compared with the 7th day of culture.
# [2] = test system: iPS cells; test: Two-dimensional adhesion culture with BMP4, hCG quantified by i-STAT cartridge Total β-hCG; type: cell-based, human
# Procedure: as §1
# Two-dimensional adhesion culture was carried out by the following method. Laminin (iMatrix-511: Nippi. Inc.) was diluted with Dulbecco's phosphate buffered saline (DPBS), 1 mL thereof per well was dispensed into a 6-well plate (Falcon TC: #353046), and the plate was allowed to stand in a 37° C. incubator for 1 hour to be coated with laminin. 2 mL of an iPS cell medium (StemFit (registered trade name) AK02N: Ajinomoto Co., Inc.) was dispensed into the laminin-coated plate in a state where a BMP4 solution was not added, iPS cells (4×10^4 cells/well) were seeded therein, the culture was continued while appropriately changing the medium, and from the 4th day of culture, 2 mL of an iPS cell culture medium (StemFit (registered trade name) AK02N: Ajinomoto Co., Inc.) to which 2 μL of a solution containing 50 μg/mL BMP4 (R&D Systems Inc.) solution had been added so that the BMP4 concentration was to be 50 ng/mL was used at the time of the medium exchange.
# as §2
# [3] = Three-dimensional culture, day 10
# [4] = Three-dimensional culture, day 14
# [5] = Three-dimensional culture, day 17
# [6] = Three-dimensional culture, day 19
# [7] = Three-dimensional culture, day 21
# [8] = Three-dimensional culture, day 25
molecule,measurement,setting,value
B1,hCG production,"[1]; Three-dimensional culture, BMP4 day 4 to 14, day 7",1.6 IU
same,hCG* production (hCG production on each of culture days/hCG production amount on 7th day) × 100,"[1]; Three-dimensional culture, day 7",100 AU
same,hCG production,[1]; [3],61 IU
same,hCG* production (relative to 7th day × 100),[1]; [3],"3,936 AU"
same,hCG production,[1]; [4],79 IU
same,hCG* production (relative to 7th day × 100),[1]; [4],"5,044 AU"
same,hCG production,[1]; [5],120 IU
same,hCG* production (relative to 7th day × 100),[1]; [5],"7,692 AU"
same,hCG production,[1]; [6],120 IU
same,hCG* production (relative to 7th day × 100),[1]; [6],"7,692 AU"
same,hCG production,[1]; [7],54 IU
same,hCG* production (relative to 7th day × 100),[1]; [7],"3,465 AU"
same,hCG production,[1]; [8],23 IU
same,hCG* production (relative to 7th day × 100),[1]; [8],"1,498 AU"
same,hCG production on 25th day as compared with the 7th day of culture,[1]; three-dimensional culture,≥ 10 times
same,hCG production,"[2]; BMP4 50 ng/mL from day 4, day 7",6.6 IU
same,hCG* production (hCG production on each of culture days/hCG production amount on 7th day) × 100,[2]; day 7,100 AU
same,hCG production,[2]; day 11,8.0 IU
same,hCG* production (relative to 7th day × 100),[2]; day 11,120 AU
same,hCG production,[2]; day 15,5.0 IU
same,hCG* production (relative to 7th day × 100),[2]; day 15,75 AU
same,hCG production,[2]; day 18,4.1 IU
same,hCG* production (relative to 7th day × 100),[2]; day 18,62 AU
same,hCG production,[2]; day 22,1.4 IU
same,hCG* production (relative to 7th day × 100),[2]; day 22,20 AU
same,hCG production,[2]; day 25,1.6 IU
same,hCG* production (relative to 7th day × 100),[2]; day 25,25 AU
